From paper PMC7845647

B1: fadL promoter FadR site (FadR_fadL site) (dsDNA)
DNA 1: ATCTGGTACGACCAGAT
DNA 2: ATCTGGTCGTACCAGAT
B2: ler (LEE1) promoter distal FadR site (FadR_ler site) (dsDNA)
DNA 1: TAATCGTTTGTCCGACTTTAACAGA
DNA 2: TCTGTTAAAGTCGGACAAACGATTA

Target: FadR (Escherichia coli (EHEC) 86-24, UniProt B5YXL1 1-239)
Test: EMSA; apo FadR, no ligand
Details: protein: recombinant, tags: N-terminal His (pET28, NdeI/BamHI), chain copies: 2, blunt

Chain of FadR (B5YXL1 whole entry): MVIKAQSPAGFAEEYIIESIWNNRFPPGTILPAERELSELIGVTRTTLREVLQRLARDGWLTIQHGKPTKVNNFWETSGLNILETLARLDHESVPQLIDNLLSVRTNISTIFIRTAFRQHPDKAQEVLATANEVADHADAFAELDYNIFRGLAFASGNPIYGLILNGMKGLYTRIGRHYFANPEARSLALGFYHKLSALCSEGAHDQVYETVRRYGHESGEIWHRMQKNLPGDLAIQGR

Binder | binding result (label: 32P (EMSA, T4 PNK), none stated in thermal shift) | binding result (label: 32P (T4 PNK))
B1 | binds | –
B2 | – | binds
